Reference: patent publication US20250388702A1 (Dana-Farber, published 2025)
Blank lines part the entries; values can stand above or below the binder they belong to.

How the values were obtained:
[1] = target: T1, Human KIR3DL3 (human, UniProt Q8N743 26-410); assay: cell-based or functional assay
[2] = target: T2, KIR3DL1 (UniProt P43629 22-444, limits assumed); assay: HEK293 cell microarray
T2 construct: whole, on cells
Description: (§1) Replicate microarray slides expressing a complete KIR family cDNA panel were fixed and blocked with buffer containing PBS/0.5% BSA and incubated for 1 hour at room temperature with individual KIR3DL3 mAb hybridoma supernatants at 1:5, 1:25 and 1:250 dilutions in PBS/0.1% BSA. Cell arrays were washed with PBS and incubated for 1 hour at room temperature in PBS/0.1% BSA containing AF647-conjugated goat anti-mouse IgG (H+L) (Life Technologies, A21235). Slides were washed with PBS, dried, and imaged for ZsGreen1 and AF647 fluorescence.
as §1, with “In Table 4, replicate” for “Replicate”, “the” for “a complete”, “panel (as in FIG. 1A, FIG. 2B, and FIG. 2C)” for “panel”

[3] = target: T3, KIR3DL2 (UniProt P43630 22-455, limits assumed); assay: HEK293 cell microarray
T3 construct: whole, on cells
Description: as §1
as §1, with “In Table 4, replicate” for “Replicate”, “the” for “a complete”, “panel (as in FIG. 1A, FIG. 2B, and FIG. 2C)” for “panel”

[4] = target: T4, KIR2DL1 (UniProt P43626 22-348, limits assumed); assay: HEK293 cell microarray
T4 construct: whole, on cells
Description: as §1
as §1, with “In Table 4, replicate” for “Replicate”, “the” for “a complete”, “panel (as in FIG. 1A, FIG. 2B, and FIG. 2C)” for “panel”

[5] = target: T5, KIR2DL2 (UniProt P43627 22-348, limits assumed); assay: HEK293 cell microarray
T5 construct: whole, on cells
Description: as §1
as §1, with “In Table 4, replicate” for “Replicate”, “the” for “a complete”, “panel (as in FIG. 1A, FIG. 2B, and FIG. 2C)” for “panel”

[6] = target: T6, KIR2DL3 (UniProt P43628 22-341, limits assumed); assay: HEK293 cell microarray
T6 construct: whole, on cells
Description: as §1
as §1, with “In Table 4, replicate” for “Replicate”, “the” for “a complete”, “panel (as in FIG. 1A, FIG. 2B, and FIG. 2C)” for “panel”

[7] = target: T7, KIR2DL4 (UniProt Q99706 22-377, limits assumed); assay: HEK293 cell microarray
T7 construct: whole, on cells
Description: as §1
as §1, with “In Table 4, replicate” for “Replicate”, “the” for “a complete”, “panel (as in FIG. 1A, FIG. 2B, and FIG. 2C)” for “panel”

[8] = target: T8, KIR2DL5A (UniProt Q8N109 22-375, limits assumed); assay: HEK293 cell microarray
T8 construct: whole, on cells
Description: as §1
as §1, with “In Table 4, replicate” for “Replicate”, “the” for “a complete”, “panel (as in FIG. 1A, FIG. 2B, and FIG. 2C)” for “panel”

[9] = target: T9, KIR2DL5B (UniProt Q8NHK3 22-375, limits assumed); assay: HEK293 cell microarray
T9 construct: whole, on cells
Description: as §1
as §1, with “In Table 4, replicate” for “Replicate”, “the” for “a complete”, “panel (as in FIG. 1A, FIG. 2B, and FIG. 2C)” for “panel”

[10] = target: T10, KIR2DS1 (UniProt Q14954 22-304, limits assumed); assay: HEK293 cell microarray
T10 construct: whole, on cells
Description: as §1
as §1, with “In Table 4, replicate” for “Replicate”, “the” for “a complete”, “panel (as in FIG. 1A, FIG. 2B, and FIG. 2C)” for “panel”

[11] = target: T11, KIR2DS2 (UniProt P43631 22-304, limits assumed); assay: HEK293 cell microarray
T11 construct: whole, on cells
Description: as §1
as §1, with “In Table 4, replicate” for “Replicate”, “the” for “a complete”, “panel (as in FIG. 1A, FIG. 2B, and FIG. 2C)” for “panel”

[12] = target: T12, KIR2DS3 (UniProt Q14952 22-304, limits assumed); assay: HEK293 cell microarray
T12 construct: whole, on cells
Description: as §1
as §1, with “In Table 4, replicate” for “Replicate”, “the” for “a complete”, “panel (as in FIG. 1A, FIG. 2B, and FIG. 2C)” for “panel”

[13] = target: T13, KIR2DS5 (UniProt Q14953 22-304, limits assumed); assay: HEK293 cell microarray
T13 construct: whole, on cells
Description: as §1
as §1, with “In Table 4, replicate” for “Replicate”, “the” for “a complete”, “panel (as in FIG. 1A, FIG. 2B, and FIG. 2C)” for “panel”

[14] = target: T14, KIR3DS1 (UniProt Q14943 22-382, limits assumed); assay: HEK293 cell microarray
T14 construct: whole, on cells
Description: as §1
as §1, with “In Table 4, replicate” for “Replicate”, “the” for “a complete”, “panel (as in FIG. 1A, FIG. 2B, and FIG. 2C)” for “panel”

[15] = target: T1, Human KIR3DL3; assay: flow cytometry, KIR3DL3-transfected 300.19 cells
[16] = target: T1, Human KIR3DL3; assay: flow cytometry, KIR3DL3-transfected 300.19 cells; remark: listed apart in the source
[17] = target: T1, Human KIR3DL3; assay: flow cytometry; blockade of HHLA2-mIgG2a binding to KIR3DL3-transfected cells
Description: (§2) The indicated concentrations of KIR3DL3 mAbs were pre-incubated with KIR3DL3 transfected 300.19 cells for 30 minutes at 4° C. […] EC50 and IC50 analysis were conducted using GraphPad Prism®.

[18] = target: T1, Human KIR3DL3; assay: flow cytometry; blockade of HHLA2-mIgG2a binding to KIR3DL3-transfected 300.19 cells; Table 3; blockade of HHLA2-mouse IgG2a binding to KIR3DL3 transfected 300.19 cells, 4° C
Description: as §2

[19] = target: T8, KIR2DL5A; assay: HEK293 cell microarray, hybridoma supernatant
Description: as §1, with “In Table 4, replicate” for “Replicate”, “the” for “a complete”, “panel (as in FIG. 1A, FIG. 2B, and FIG. 2C)” for “panel”

T1 sequence (Q8N743 26-410 H321N limits assumed): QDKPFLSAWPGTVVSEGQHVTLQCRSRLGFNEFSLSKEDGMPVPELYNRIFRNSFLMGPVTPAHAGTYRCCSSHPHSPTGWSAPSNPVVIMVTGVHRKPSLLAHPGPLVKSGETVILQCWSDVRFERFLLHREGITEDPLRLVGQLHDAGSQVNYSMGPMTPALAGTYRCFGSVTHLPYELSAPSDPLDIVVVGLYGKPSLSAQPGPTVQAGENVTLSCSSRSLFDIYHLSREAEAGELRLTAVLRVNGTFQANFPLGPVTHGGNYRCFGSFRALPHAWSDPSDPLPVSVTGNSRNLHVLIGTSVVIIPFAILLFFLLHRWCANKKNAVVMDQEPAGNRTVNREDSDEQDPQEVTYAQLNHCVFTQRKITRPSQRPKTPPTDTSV
T3 sequence (P43630 22-455 limits assumed): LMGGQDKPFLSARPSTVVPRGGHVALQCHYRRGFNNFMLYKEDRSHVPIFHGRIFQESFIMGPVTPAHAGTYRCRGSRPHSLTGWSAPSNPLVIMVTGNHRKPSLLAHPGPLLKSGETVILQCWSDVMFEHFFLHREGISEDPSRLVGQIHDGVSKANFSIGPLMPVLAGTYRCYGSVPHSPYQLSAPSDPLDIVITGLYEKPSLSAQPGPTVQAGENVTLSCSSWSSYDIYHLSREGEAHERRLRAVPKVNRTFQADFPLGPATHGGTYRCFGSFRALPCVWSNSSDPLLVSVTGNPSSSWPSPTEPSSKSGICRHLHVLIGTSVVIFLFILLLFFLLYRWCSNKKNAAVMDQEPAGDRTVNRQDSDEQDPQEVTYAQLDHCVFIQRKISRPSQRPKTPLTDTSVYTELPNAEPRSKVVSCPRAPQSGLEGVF
T10 sequence (Q14954 22-304 limits assumed): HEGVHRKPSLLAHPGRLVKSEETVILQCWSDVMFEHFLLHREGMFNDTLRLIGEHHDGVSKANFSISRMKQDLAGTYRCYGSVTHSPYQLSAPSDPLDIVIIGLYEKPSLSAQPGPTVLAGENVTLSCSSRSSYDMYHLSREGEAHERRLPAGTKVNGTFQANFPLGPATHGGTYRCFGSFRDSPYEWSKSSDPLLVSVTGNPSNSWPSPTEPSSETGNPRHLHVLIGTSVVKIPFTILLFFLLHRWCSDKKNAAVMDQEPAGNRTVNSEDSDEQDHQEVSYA
T7 sequence (Q99706 22-377 limits assumed): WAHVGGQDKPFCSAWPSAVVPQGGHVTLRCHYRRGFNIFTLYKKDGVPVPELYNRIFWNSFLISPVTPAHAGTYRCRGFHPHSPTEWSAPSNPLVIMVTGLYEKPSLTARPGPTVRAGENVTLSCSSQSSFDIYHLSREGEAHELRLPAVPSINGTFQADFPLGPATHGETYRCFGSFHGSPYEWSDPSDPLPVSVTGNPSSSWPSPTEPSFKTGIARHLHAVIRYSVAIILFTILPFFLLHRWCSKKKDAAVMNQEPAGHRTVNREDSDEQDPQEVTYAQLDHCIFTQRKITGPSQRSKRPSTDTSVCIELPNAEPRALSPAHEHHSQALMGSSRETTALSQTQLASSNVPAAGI
T13 sequence (Q14953 22-304 limits assumed): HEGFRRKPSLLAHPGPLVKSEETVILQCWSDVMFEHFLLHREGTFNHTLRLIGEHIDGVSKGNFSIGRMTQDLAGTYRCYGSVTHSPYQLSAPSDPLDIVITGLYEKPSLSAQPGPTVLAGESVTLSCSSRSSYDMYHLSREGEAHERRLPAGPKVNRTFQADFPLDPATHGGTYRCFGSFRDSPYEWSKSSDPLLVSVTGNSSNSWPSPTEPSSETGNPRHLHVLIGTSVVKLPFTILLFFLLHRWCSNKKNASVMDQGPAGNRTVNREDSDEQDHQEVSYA
T4 sequence (P43626 22-348 limits assumed): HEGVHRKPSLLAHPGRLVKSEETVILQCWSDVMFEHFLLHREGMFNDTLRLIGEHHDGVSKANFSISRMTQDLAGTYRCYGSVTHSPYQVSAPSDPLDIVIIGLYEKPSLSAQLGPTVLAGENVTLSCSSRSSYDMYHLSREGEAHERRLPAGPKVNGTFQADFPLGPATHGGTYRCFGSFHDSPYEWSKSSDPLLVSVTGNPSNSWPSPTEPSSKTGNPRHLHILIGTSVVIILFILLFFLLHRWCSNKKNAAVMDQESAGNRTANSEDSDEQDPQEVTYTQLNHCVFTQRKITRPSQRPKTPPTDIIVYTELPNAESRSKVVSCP
T2 sequence (P43629 22-444 limits assumed): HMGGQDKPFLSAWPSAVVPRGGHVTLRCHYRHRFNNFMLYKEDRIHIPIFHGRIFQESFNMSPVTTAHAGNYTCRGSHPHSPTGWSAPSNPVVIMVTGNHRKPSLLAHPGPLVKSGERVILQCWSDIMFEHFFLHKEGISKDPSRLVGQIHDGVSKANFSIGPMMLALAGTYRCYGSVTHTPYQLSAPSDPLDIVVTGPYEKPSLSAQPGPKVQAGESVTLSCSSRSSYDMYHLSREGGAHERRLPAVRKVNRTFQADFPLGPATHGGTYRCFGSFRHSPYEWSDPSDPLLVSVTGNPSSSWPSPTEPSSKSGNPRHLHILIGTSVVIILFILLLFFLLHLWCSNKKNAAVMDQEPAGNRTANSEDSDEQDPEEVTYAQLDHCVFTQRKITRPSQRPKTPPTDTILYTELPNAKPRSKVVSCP
T12 sequence (Q14952 22-304 limits assumed): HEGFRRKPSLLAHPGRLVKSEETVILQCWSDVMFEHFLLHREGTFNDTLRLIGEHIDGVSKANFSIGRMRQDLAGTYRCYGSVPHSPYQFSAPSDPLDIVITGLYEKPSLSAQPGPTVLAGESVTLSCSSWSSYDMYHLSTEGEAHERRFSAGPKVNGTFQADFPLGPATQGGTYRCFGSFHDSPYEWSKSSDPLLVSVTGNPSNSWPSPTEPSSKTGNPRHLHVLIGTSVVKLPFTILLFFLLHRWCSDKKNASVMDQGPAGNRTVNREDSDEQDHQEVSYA
T5 sequence (P43627 22-348 limits assumed): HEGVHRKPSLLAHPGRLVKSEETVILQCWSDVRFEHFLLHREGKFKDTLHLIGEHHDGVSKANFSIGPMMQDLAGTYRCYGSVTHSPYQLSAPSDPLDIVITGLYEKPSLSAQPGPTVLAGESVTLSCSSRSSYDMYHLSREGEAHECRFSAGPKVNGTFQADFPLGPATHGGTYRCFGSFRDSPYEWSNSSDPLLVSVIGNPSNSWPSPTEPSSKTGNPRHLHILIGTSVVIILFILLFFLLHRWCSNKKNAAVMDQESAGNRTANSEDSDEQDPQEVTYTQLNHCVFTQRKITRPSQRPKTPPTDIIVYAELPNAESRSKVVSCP
T8 sequence (Q8N109 22-375 limits assumed): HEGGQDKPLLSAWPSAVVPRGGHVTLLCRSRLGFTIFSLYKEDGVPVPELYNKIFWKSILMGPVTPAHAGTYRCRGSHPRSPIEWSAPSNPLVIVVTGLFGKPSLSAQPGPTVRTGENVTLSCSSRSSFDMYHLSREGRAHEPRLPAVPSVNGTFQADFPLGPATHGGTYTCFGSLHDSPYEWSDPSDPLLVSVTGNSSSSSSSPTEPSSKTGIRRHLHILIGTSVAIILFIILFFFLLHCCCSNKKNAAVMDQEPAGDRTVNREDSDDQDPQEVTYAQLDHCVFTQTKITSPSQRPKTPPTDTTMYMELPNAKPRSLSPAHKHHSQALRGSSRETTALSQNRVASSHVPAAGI
T6 sequence (P43628 22-341 limits assumed): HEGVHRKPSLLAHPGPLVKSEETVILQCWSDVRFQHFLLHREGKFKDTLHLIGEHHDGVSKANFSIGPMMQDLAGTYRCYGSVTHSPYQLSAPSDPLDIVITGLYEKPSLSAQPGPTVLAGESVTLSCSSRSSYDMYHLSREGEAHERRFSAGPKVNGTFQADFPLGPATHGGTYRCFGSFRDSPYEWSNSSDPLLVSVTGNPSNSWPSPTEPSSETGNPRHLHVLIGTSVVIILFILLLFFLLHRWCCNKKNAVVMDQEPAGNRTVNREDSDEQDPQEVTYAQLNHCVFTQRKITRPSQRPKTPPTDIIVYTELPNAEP
T14 sequence (Q14943 22-382 limits assumed): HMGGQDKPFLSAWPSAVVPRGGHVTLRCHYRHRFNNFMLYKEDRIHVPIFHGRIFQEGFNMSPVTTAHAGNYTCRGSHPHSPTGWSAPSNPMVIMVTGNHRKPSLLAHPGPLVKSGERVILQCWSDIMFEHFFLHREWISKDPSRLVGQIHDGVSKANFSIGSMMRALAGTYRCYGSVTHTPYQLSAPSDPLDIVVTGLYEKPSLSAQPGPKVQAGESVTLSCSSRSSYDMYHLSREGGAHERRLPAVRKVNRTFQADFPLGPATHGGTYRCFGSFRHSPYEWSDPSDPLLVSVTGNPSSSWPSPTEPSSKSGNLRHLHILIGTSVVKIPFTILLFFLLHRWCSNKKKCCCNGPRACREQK
T11 sequence (P43631 22-304 limits assumed): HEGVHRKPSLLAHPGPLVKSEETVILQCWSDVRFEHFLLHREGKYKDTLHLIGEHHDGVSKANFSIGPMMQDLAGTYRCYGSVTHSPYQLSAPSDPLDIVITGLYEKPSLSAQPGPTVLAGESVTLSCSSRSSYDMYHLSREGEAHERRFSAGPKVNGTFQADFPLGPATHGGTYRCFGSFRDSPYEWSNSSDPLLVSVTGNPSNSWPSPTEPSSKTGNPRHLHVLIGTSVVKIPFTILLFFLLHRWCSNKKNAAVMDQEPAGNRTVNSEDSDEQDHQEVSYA
T9 sequence (Q8NHK3 22-375 limits assumed): as the sequence (Q8N109 22-375 limits assumed) above, with N152D, G174S counted along it

Jurkat IL-2 Luciferase Activation, EC50 [1]: 0.37 µg/mL
Jurkat IL-2 Luciferase, Fold Activation [1]: 9.9 fold
Kd [15]: 0.13 µg/mL
EC50 [16]: 0.13 µg/mL
IC50 [17]: 0.61 µg/mL
IC50 [18]: 0.06 µg/mL
B1: KIR3DL3 mAb 574.2.1G7.9.9 (antibody, IgG2b, V domains shown)
VH: ELKLEESGGGLVQPGGSMKLSCVASGFTFSNYWMNWVRQSPEKGLEWIAEIRLKSNNYATHYAESVKGRFTISRDDSKSSVYLQMNNLRAEDTGIFYCTPFYGSSFPYWGQGTLVTVSA
VL: DIQMTQTTSSLSASLGDRVTISCRASQDISNYLNWYQQKPDGTVKLLIYYTSILQLGVPPRFSGSGSGTDYSLTISNLEQEDIATYFCQQGNTLPFTFGAGTKVELK
notes: Mouse hybridoma antibody, IgG2b; only variable domains given; also called AVS-3701
binding result [2]: no binding (tested: supernatant 1:5, 1:25, 1:250)
binding result [3]: no binding (tested: supernatant 1:5, 1:25, 1:250)
binding result [4]: no binding (tested: supernatant 1:5, 1:25, 1:250)
binding result [5]: no binding (tested: supernatant 1:5, 1:25, 1:250)
binding result [6]: no binding (tested: supernatant 1:5, 1:25, 1:250)
binding result [7]: no binding (tested: supernatant 1:5, 1:25, 1:250)
binding result [8]: no binding (tested: supernatant 1:5, 1:25, 1:250)
binding result [9]: no binding (tested: supernatant 1:5, 1:25, 1:250)
binding result [10]: no binding (tested: supernatant 1:5, 1:25, 1:250)
binding result [11]: no binding (tested: supernatant 1:5, 1:25, 1:250)
binding result [12]: no binding (tested: supernatant 1:5, 1:25, 1:250)
binding result [13]: no binding (tested: supernatant 1:5, 1:25, 1:250)
binding result [14]: no binding (tested: supernatant 1:5, 1:25, 1:250)

binding result [19]: binds
B2: KIR3DL3 mAb 574.2.8C2.12.3.10 (antibody, IgG2a, V domains shown)
VH: KVQLQQSGAELVRPGTSVKVSCKASGYAFTNYLIEWVKQRPGQGLEWIGVINPGSGGTNDNEKFRDKATLTADKSSSTAYMQLSSLTSDDSAVYFCARGNYYGTTDWYFDVWGAGTTVTVSS
VL: QIVLTQSPAIMSASLGERVTMTCTASASVSSSSLHWYQQKPGSPPKFWIYSTTNLASGVPTRFSGSGSGTSYSLTISNMEAEDAATYYCHQYHRSPPTFGGGTKLEIK
notes: Mouse hybridoma antibody, IgG2a; only variable domains given; also called AVS-3706
binding result [2]: no binding (tested: supernatant 1:5, 1:25, 1:250)
binding result [3]: no binding (tested: supernatant 1:5, 1:25, 1:250)
binding result [4]: no binding (tested: supernatant 1:5, 1:25, 1:250)
binding result [5]: no binding (tested: supernatant 1:5, 1:25, 1:250)
binding result [6]: no binding (tested: supernatant 1:5, 1:25, 1:250)
binding result [7]: no binding (tested: supernatant 1:5, 1:25, 1:250)
binding result [10]: no binding (tested: supernatant 1:5, 1:25, 1:250)
binding result [11]: no binding (tested: supernatant 1:5, 1:25, 1:250)
binding result [12]: no binding (tested: supernatant 1:5, 1:25, 1:250)
binding result [13]: no binding (tested: supernatant 1:5, 1:25, 1:250)
binding result [14]: no binding (tested: supernatant 1:5, 1:25, 1:250)
